Our source for the Kd, percent of the protein as dimer and stoichiometry N values is article PMC13570301.

Experiment [1] concerns the target UBE2D2 (1–147), from the plasmid pHis//2 Hs UBE2D2 (1–147) (human) (UniProt P62837). Nature of the experiment: BLI. As to conditions: enzyme.
The target of experiment [2] is CHIP Y230Cfs∗9, recombinant, C-terminal His tag (human) (UniProt Q9UNE7). Description: mass photometry; Refeyn OneMP; CHIP at 50 nM final (a subset also at 20 nM and 100 nM) in 20 mM HEPES pH 8.0, 200 mM NaCl; self-association, oligomeric states by mass.

The Kd is the equilibrium constant for the complex coming apart. A higher Kd goes with lower affinity. The stoichiometry N is the number of molecules, sites or subunits per partner or assembly.

Chain of CHIP Y230Cfs∗9, recombinant, C-terminal His tag (Q9UNE7 whole entry): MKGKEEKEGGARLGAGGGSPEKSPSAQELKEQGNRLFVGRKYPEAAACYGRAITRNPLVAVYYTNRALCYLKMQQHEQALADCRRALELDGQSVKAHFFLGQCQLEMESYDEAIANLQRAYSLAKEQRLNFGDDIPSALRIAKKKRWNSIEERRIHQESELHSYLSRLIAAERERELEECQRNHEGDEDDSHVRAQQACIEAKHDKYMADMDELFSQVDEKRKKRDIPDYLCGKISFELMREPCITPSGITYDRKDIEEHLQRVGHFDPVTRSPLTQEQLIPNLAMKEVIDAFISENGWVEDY
Chain of UBE2D2 (1–147), from the plasmid pHis//2 Hs UBE2D2 (1–147) (human) (P62837 whole entry): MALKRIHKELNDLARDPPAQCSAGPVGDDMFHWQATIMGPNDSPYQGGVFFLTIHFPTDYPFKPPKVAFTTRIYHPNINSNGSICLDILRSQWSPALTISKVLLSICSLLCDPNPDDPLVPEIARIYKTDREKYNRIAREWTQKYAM
Chain of CHIP L275Dfs∗16, recombinant, C-terminal His tag (Q9UNE7 whole entry): as the sequence (Q9UNE7 whole entry) above

The substance “CHIP L275Dfs∗16, recombinant, C-terminal His tag (from UniProt Q9UNE7-1 1-303)” came in with a dissociation constant Kd in experiment [1] of 308 µM. Consider “CHIP Y230Cfs∗9, recombinant, C-terminal His tag (from UniProt Q9UNE7-1 1-303) (enzyme)”, for which, in experiment [2], the percent of the protein as dimer was found to be 80% and the stoichiometry N was determined as 2.
